Assay results from US20240116985A1, “STAPLED PEPTIDES AND METHODS THEREOF” (priority 2020, published 2024).
Starred links: 1 amine or outer side, 2 acyl side, 3 side chain; linkers in the order of their positions; H or OH if unused. Positions of bridges follow the written chain, without caps; N, C: chain ends. Non-standard residues stand in square brackets, D forms with d. Primed or numbered codes have the meaning given here. B5(15) = 2-amino-2-(pent-4-en-1-yl)hept-6-enoic acid (2,2-bis(4-pentenyl)glycine), stitching residue bearing two staples, C=CCCCC(CCCC=C)(N[*:1])C(=O)[*:2]; PyrS2″ = (S)-3-amino-1-((pent-4-en-1-yloxy)carbonyl)pyrrolidine-3-carboxylic acid (stapling residue), C=CCCCOC(=O)N1CC[C@@](N[*:1])(C(=O)[*:2])C1; B5(23) = 2-amino-2-(pent-4-en-1-yl)hept-6-enoic acid (2,2-bis(4-pentenyl)glycine), stitching residue, C=CCCCC(CCCC=C)(N[*:1])C(=O)[*:2]; B5(4) = 2,2-bis(4-pentenyl)glycine = 2-amino-2-(pent-4-en-1-yl)hept-6-enoic acid (stitching residue), C=CCCCC(CCCC=C)(N[*:1])C(=O)[*:2]; PyrS2 = (S)-3-amino-1-((pent-4-en-1-yloxy)carbonyl)pyrrolidine-3-carboxylic acid, C=CCCCOC(=O)N1CC[C@@](N[*:1])(C(=O)[*:2])C1; B5(25) = 2-amino-2-(pent-4-en-1-yl)hept-6-enoic acid (stitching residue), C=CCCCC(CCCC=C)(N[*:1])C(=O)[*:2]; EtGA = (S)-2-amino-3-((carboxymethyl)(ethyl)amino)propanoic acid, CCN(CC(=O)[*:3])C[C@H](N[*:1])C(=O)[*:2]; B5(3) = 2,2-bis(4-pentenyl)glycine (stitching residue), C=CCCCC(CCCC=C)(N[*:1])C(=O)[*:2]; B5 = 2-amino-2-(pent-4-en-1-yl)hept-6-enoic acid, C=CCCCC(CCCC=C)(N[*:1])C(=O)[*:2]; Phe(3-COOH) = N[C@@H](Cc1cccc(C(=O)O)c1)C(=O)O; Bta = N[C@@H](Cc1csc2ccccc12)C(=O)O; αAllylPro = C=CC[C@@]1(C(=O)O)CCCN1; tBuAla = CC(C)(C)C[C@H](N)C(=O)O; 2Thi = N[C@@H](Cc1cccs1)C(=O)O; 3Thi = N[C@@H](Cc1ccsc1)C(=O)O; S8 = C=CCCCCCC[C@](C)(N)C(=O)O; hLeu = CC(C)CC[C@H](N)C(=O)O; hSer = N[C@@H](CCO)C(=O)O

B1: I-981 (peptide)
peptide: Ac-[αAllylPro]D[tBuAla][B5(4)]D[Phe(3-COOH)]AAFT[PyrS2″][3Thi][Bta]Q-NH2
modifications: staple 1-4, 4-11; also: later eluting HPLC staple isomer
B2: I-982 (peptide)
peptide: Ac-[αAllylPro]D[tBuAla][B5(3)]D[Phe(3-COOH)]AAFF[PyrS2″][3Thi][Bta]S-NH2
modifications: staple 1-4, 4-11; also: earlier eluting HPLC isomer
B3: I-796 (peptide)
peptide: Ac-[αAllylPro]F[tBuAla][B5]DDAADN[PyrS2][3Thi][Bta]H-NH2
modifications: staple 1-4, 4-11
B4: I-1444 (peptide)
peptide: Ac-[αAllylPro]D[tBuAla][B5(4)]DLAAFL[PyrS2″][3Thi][Bta]Q-NH2
modifications: staple 1-4, 4-11
B5: I-485 (peptide)
peptide: Ac-[αAllylPro]DI[B5(4)]DEAA[2Thi]Q[S8]F[Bta]Q-NH2
modifications: staple 1-4, 4-11
B6: I-968 (peptide)
peptide: Ac-[αAllylPro]D[tBuAla][B5(25)]D[EtGA]AAFT[PyrS2″][3Thi][Bta]Q-NH2
modifications: staple 1-4, 4-11; also: earlier-eluting HPLC staple isomer
B7: I-974 (peptide)
peptide: Ac-[αAllylPro]D[tBuAla][B5(4)]D[EtGA]AAFS[PyrS2″][3Thi][Bta]S-NH2
modifications: staple 1-4, 4-11; also: earlier eluting HPLC staple isomer
B8: I-969 (peptide)
peptide: Ac-[αAllylPro]D[tBuAla][B5(25)]D[EtGA]AAFT[PyrS2″][3Thi][Bta]Q-NH2
modifications: staple 1-4, 4-11; not fully specified; printed as Ac-PL3-Asp-Npg-B5-Asp-EtGA-Ala-Ala-Phe-Thr-PyrS2-3Thi-BztA-Gln-NH2
B9: I-975 (peptide)
peptide: Ac-[αAllylPro]D[tBuAla][B5(4)]D[EtGA]AAFS[PyrS2″][3Thi][Bta]S-NH2
modifications: staple 1-4, 4-11; also: later eluting HPLC staple isomer
B10: I-967 (peptide)
peptide: Ac-[αAllylPro]D[tBuAla][B5(25)]D[EtGA]AAFS[PyrS2″][3Thi][Bta]Q-NH2
modifications: staple 1-4, 4-11; not fully specified; printed as Ac-PL3-Asp-Npg-B5-Asp-EtGA-Ala-Ala-Phe-Ser-PyrS2-3Thi-BztA-Gln-NH2
B11: I-966 (peptide)
peptide: Ac-[αAllylPro]D[tBuAla][B5(25)]D[EtGA]AAFS[PyrS2″][3Thi][Bta]Q-NH2
modifications: staple 1-4, 4-11; also: earlier-eluting HPLC staple isomer
B12: I-1536 (peptide)
peptide: Ac-[αAllylPro]D[hLeu][B5(15)]DEAAFL[S8]F[Bta]Q-NH2
modifications: staple 1-4, 4-11
B13: I-1537 (peptide)
peptide: Ac-[αAllylPro]D[hLeu][B5(15)]DEAAF[hSer][S8]F[Bta]Q-NH2
modifications: staple 1-4, 4-11; not fully specified; printed as Ac-PL3-Asp-Hleu-B5-Asp-Glu-Ala-Ala-Phe-Hse-S8-Phe-BztA-Gln-NH2
B14: I-1538 (peptide)
peptide: Ac-[αAllylPro]D[hLeu][B5(15)]DEAAF[hSer][S8]F[Bta]Q-NH2
modifications: staple 1-4, 4-11; not fully specified; printed as Ac-PL3-Asp-Hleu-B5-Asp-Glu-Ala-Ala-Phe-Hse-S8-Phe-BztA-Gln-NH2
B15: I-1555 (peptide)
peptide: Ac-[αAllylPro]D[tBuAla][B5(23)]NNAAFN[PyrS2][3Thi][Bta]Q-NH2
modifications: staple 1-4, 4-11

molecular target: full-length beta-Catenin (Uniprot ID P35222) (Homo sapiens (Human)) (UniProt P35222); experiment: fluorescence polarization competition; full-length beta-catenin, competitor probe 5FAM-TCF4(10-53)
Target sequence in this assay (P35222 2-781 limits assumed): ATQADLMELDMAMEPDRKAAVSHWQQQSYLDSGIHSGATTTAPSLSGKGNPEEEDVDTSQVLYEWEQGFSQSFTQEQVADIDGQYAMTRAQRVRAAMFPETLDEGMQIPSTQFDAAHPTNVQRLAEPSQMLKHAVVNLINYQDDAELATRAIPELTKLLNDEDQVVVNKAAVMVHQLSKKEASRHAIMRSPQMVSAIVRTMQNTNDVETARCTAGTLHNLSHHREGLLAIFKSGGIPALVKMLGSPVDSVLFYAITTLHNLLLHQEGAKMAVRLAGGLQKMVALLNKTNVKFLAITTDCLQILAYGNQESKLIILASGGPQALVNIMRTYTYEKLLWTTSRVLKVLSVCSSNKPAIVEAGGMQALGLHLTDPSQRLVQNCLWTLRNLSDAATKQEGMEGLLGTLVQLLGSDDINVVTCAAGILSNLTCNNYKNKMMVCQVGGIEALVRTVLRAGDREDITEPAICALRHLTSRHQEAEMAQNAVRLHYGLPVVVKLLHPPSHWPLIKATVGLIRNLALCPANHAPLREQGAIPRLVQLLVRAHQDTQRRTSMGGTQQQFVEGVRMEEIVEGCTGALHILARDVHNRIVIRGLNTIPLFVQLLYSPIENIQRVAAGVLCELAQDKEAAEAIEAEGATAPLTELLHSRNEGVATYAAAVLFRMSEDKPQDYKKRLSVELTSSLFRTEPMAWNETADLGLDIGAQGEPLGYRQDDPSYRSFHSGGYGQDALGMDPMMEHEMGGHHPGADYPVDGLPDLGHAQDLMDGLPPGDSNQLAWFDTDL

IC50 | Binder
374 nM | B1
190 nM | B2

molecular target: full-length beta-Catenin (Uniprot ID P35222) (Homo sapiens (Human)) (UniProt P35222); experiment: fluorescence polarization competition: peptide titrated against 10 nM full-length beta-catenin + 10 nM 5FAM-TCF4(10-53) probe
Target sequence in this assay (P35222 2-781 limits assumed): as above

EC50 | Binder
8140 nM | B3

molecular target: beta-catenin (Homo sapiens (Human)) (UniProt P35222); experiment: fluorescence polarization competition; full-length beta-catenin with 5FAM-TCF4(10-53) probe as competitor
Sequence (P35222 whole entry): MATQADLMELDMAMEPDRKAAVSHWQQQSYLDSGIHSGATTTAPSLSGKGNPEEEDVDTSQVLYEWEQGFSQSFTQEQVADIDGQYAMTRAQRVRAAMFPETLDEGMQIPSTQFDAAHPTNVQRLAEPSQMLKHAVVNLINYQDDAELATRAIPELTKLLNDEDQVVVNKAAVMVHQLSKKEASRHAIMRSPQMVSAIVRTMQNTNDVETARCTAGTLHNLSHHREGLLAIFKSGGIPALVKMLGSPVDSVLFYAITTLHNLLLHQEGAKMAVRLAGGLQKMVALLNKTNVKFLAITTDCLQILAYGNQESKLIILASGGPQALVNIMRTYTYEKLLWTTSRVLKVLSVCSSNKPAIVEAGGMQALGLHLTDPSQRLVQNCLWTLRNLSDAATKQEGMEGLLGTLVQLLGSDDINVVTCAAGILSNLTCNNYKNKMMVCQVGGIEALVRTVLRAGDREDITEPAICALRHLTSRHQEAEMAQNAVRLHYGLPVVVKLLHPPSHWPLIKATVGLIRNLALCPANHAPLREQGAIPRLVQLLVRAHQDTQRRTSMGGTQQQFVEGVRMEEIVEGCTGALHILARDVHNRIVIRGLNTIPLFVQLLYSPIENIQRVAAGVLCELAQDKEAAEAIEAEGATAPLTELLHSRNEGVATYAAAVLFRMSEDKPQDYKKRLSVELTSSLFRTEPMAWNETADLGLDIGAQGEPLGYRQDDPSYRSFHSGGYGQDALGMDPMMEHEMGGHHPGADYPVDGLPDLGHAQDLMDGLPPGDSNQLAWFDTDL

EC50 | Binder
6560 nM | B4

molecular target: full-length beta-Catenin (Uniprot ID P35222) (Homo sapiens (Human)) (UniProt P35222); experiment: as above
Target sequence in this assay (P35222 2-781 limits assumed): as the sequence (P35222 2-781 limits assumed) above

IC50 | Binder
34 nM | B5

molecular target: full-length beta-Catenin (Uniprot ID P35222) (Homo sapiens (Human)) (UniProt P35222); experiment: cell-based or functional assay
Target sequence in this assay (P35222 2-781 limits assumed): as above

NanoBRET Abs IC50 | Binder
11300 nM | B5

molecular target: full-length beta-Catenin (Uniprot ID P35222) (Homo sapiens (Human)) (UniProt P35222); experiment: fluorescence polarization competition; full-length beta-catenin, competitor 5FAM-TCF4(10-53) probe
Target sequence in this assay (P35222 whole entry, one chain of several): as the sequence (P35222 whole entry) above

IC50 | Binder
6560 nM | B4

molecular target: full-length beta-Catenin (Uniprot ID P35222) (Homo sapiens (Human)) (UniProt P35222); experiment: fluorescence polarization competition vs 5FAM-TCF4(10-53) on full-length beta-catenin
Target sequence in this assay (P35222 2-781 limits assumed): as the sequence (P35222 2-781 limits assumed) above

IC50 | Binder
2980 nM | B6
1780 nM | B7
2320 nM | B8
2240 nM | B9
1740 nM | B10
2020 nM | B11

molecular target: full-length beta-Catenin (Uniprot ID P35222) (Homo sapiens (Human)) (UniProt P35222); experiment: fluorescence polarization competition; displacement of 5FAM-TCF4(10-53) from full-length beta-catenin
Target sequence in this assay (P35222 whole entry, one chain of several): as the sequence (P35222 whole entry) above

EC50 | Binder
34 nM | B5

molecular target: full-length beta-Catenin (Uniprot ID P35222) (Homo sapiens (Human)) (UniProt P35222); experiment: fluorescence polarization competition; displaces 5FAM-TCF4(10-53) from full-length beta-catenin
Target sequence in this assay (P35222 2-781 limits assumed): as the sequence (P35222 2-781 limits assumed) above

IC50 | Binder
42 nM | B12
31 nM | B13
21 nM | B14
180 nM | B15

molecular target: full-length beta-Catenin (Uniprot ID P35222) (Homo sapiens (Human)) (UniProt P35222); experiment: fluorescence polarization competition; full-length beta-catenin with 5FAM-labeled TCF4 (10-53) probe as competitor
Target sequence in this assay (P35222 whole entry, one chain of several): as the sequence (P35222 whole entry) above

EC50 | Binder
2980 nM | B6
1780 nM | B7
2320 nM | B8
199 nM | B1
190 nM | B2
1710 nM | B9
1740 nM | B10
2020 nM | B11
